Laboratory results from publication PMC9482650, “Quantitative fragmentomics allow affinity mapping of interactomes” (Nature Communications, 2022).

Experiments:
Assay in all cases: holdup assay
Parameters in all cases: key: below the threshold = too weak to quantify, mostly under pKd 3.1 to 4
Settings in all cases: plain residues with an end cap or a label only (N-terminal biotin on a linker: ado-ado)
MAST2, Q6P0Q8 = molecular target: MAST2, Q6P0Q8
TJP1_2, Q07157 = molecular target: TJP1_2, Q07157
Inadl_3, Q8NI35 = molecular target: Inadl_3, Q8NI35
DLG5_1, Q8TDM6 = molecular target: DLG5_1, Q8TDM6
MPDZ_12, O75970 = molecular target: T1, MPDZ_12, O75970
T1 sequence (O75970 1857-1958, limits assumed, looked up): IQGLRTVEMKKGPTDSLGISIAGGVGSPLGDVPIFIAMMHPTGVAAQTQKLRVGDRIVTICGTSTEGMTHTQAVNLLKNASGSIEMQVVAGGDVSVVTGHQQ

MPP7, Q5T2T1 = molecular target: T2, MPP7, Q5T2T1
T2 sequence (Q5T2T1 134-230, limits assumed, looked up): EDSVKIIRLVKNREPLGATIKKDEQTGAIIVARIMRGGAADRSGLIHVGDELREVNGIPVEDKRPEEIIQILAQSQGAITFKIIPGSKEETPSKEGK

LIMK2, P53671 = molecular target: LIMK2, P53671
TIAM2, Q8IVF5 = molecular target: T3, TIAM2, Q8IVF5
T3 sequence (Q8IVF5 885-986, limits assumed, looked up): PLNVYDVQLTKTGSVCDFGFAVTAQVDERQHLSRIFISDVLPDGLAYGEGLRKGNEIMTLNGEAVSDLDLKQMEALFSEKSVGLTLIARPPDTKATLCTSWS

GOPC, Q9HD26 = molecular target: GOPC, Q9HD26
APBA2_1, Q99767 = molecular target: T4, APBA2_1, Q99767
T4 sequence (Q99767 563-664, limits assumed, looked up): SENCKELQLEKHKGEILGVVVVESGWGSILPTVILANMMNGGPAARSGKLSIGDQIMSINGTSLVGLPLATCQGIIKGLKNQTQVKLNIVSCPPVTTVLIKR

MPP2, Q14168 = molecular target: T5, MPP2, Q14168
T5 sequence (Q14168 180-250, limits assumed, looked up): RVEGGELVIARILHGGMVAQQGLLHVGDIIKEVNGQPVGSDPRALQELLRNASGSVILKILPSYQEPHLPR

NHERF3_3, Q5T2W1 = molecular target: T6, NHERF3_3, Q5T2W1
T6 sequence (Q5T2W1 238-333, limits assumed, looked up): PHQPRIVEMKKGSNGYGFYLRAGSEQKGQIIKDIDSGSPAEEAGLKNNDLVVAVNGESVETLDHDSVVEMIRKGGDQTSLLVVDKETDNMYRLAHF

SNTG1, Q9NSN8 = molecular target: T7, SNTG1, Q9NSN8
T7 sequence (Q9NSN8 52-150, limits assumed, looked up): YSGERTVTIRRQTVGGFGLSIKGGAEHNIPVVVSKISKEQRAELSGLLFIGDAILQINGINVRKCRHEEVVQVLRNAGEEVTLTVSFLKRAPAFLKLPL

ARHGEF12, Q9NZN5-2 = molecular target: ARHGEF12, Q9NZN5-2
HTRA2, O43464 = molecular target: HTRA2, O43464
GRIP2_3, Q9C0E4 = molecular target: GRIP2_3, Q9C0E4
ARHGEF11, O15085 = molecular target: T8, ARHGEF11, O15085
T8 sequence (O15085 42-136, limits assumed, looked up): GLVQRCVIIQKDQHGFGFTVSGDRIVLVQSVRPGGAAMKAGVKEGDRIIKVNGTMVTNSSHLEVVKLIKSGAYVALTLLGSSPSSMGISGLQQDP

APBA1_2, Q02410 = molecular target: T9, APBA1_2, Q02410
T9 sequence (Q02410 742-832, limits assumed, looked up): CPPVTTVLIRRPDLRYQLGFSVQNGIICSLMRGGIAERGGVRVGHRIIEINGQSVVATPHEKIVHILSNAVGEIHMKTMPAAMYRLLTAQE

HTRA4, P83105 = molecular target: T10, HTRA4, P83105
T10 sequence (P83105 378-476, limits assumed, looked up): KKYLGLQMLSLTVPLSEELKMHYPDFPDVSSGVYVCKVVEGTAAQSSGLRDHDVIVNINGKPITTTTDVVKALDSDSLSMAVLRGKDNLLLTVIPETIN

PDZD7_3, Q9H5P4 = molecular target: T11, PDZD7_3, Q9H5P4
T11 sequence (Q9H5P4 857-944, limits assumed, looked up): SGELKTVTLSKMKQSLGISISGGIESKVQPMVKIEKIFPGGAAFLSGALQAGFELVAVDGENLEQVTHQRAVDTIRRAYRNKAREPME

GRIP1_7, Q9Y3R0 = molecular target: T12, GRIP1_7, Q9Y3R0
T12 sequence (Q9Y3R0 999-1096, limits assumed, looked up): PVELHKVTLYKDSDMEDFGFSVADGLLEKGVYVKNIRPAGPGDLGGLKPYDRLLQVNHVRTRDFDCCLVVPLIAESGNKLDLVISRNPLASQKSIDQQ

DVL3, Q92997 = molecular target: T13, DVL3, Q92997
T13 sequence (Q92997 244-331, limits assumed, looked up): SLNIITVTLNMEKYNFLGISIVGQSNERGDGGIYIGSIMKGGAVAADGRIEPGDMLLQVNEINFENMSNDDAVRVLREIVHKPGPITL

SCRIB_1, Q14160 = molecular target: SCRIB_1, Q14160
LNX2_2, Q8N448 = molecular target: T14, LNX2_2, Q8N448
T14 sequence (Q8N448 334-432, limits assumed, looked up): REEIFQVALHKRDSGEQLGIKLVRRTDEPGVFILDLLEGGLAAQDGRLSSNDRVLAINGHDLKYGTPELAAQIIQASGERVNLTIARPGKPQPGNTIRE

Chain of SCRIB_1, Q14160 (Q14160 718-814): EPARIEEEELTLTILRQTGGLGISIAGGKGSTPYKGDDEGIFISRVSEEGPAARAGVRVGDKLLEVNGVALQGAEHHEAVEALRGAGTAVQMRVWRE
Chain of LIMK2, P53671 (P53671 143-248): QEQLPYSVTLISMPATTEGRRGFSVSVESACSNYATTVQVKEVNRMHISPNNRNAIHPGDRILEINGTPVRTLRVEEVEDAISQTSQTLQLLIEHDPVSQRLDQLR
Chain of ARHGEF12, Q9NZN5-2 (Q9NZN5 other isoform, or with tags, fused parts or gaps): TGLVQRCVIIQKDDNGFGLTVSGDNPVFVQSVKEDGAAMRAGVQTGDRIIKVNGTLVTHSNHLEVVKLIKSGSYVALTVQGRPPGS
Chain of Inadl_3, Q8NI35 (Q8NI35 359-469): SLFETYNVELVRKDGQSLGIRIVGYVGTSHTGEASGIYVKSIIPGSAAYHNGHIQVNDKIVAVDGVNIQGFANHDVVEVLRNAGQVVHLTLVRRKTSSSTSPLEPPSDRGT
Chain of HTRA2, O43464 (O43464 355-458): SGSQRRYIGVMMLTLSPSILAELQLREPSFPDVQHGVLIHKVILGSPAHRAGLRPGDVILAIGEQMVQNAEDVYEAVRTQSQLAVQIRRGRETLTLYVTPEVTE
Chain of GRIP2_3, Q9C0E4 (Q9C0E4 238-339): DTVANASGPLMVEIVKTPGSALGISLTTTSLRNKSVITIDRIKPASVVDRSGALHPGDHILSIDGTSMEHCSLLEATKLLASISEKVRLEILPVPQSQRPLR
Chain of MAST2, Q6P0Q8 (Q6P0Q8 1099-1202): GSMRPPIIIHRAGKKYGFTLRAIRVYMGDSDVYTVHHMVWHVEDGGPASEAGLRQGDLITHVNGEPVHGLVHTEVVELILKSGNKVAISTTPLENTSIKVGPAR
Chain of DLG5_1, Q8TDM6 (Q8TDM6 617-713): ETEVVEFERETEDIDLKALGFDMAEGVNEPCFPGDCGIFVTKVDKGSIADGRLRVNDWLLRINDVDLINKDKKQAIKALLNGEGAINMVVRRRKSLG
Chain of TJP1_2, Q07157 (Q07157 181-274): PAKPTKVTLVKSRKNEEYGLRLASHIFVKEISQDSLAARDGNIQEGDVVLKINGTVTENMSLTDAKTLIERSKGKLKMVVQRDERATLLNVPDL

Row | pKd (MAST2, Q6P0Q8) | pKd (TJP1_2, Q07157) | pKd (Inadl_3, Q8NI35) | pKd (DLG5_1, Q8TDM6) | pKd (MPDZ_12, O75970) | pKd (MPP7, Q5T2T1) | pKd (LIMK2, P53671) | pKd (TIAM2, Q8IVF5) | pKd (GOPC, Q9HD26) | pKd (APBA2_1, Q99767) | pKd (MPP2, Q14168) | pKd (NHERF3_3, Q5T2W1) | pKd (SNTG1, Q9NSN8) | pKd (ARHGEF12, Q9NZN5-2) | pKd (HTRA2, O43464) | pKd (GRIP2_3, Q9C0E4) | pKd (ARHGEF11, O15085) | pKd (APBA1_2, Q02410) | pKd (HTRA4, P83105) | pKd (PDZD7_3, Q9H5P4) | Binder | further results
1 | 5.12 | below the threshold | 4.26 | below the threshold | below the threshold | below the threshold | below the threshold | 3.79 | below the threshold | below the threshold | below the threshold | below the threshold | 3.9 | 3.84 | below the threshold | below the threshold | below the threshold | below the threshold | below the threshold | 5.23 | ETQVTAETVI [TMEM225B, P0DP42] | pKd (GRIP1_7, Q9Y3R0): below the threshold; pKd (DVL3, Q92997): below the threshold; pKd (SCRIB_1, Q14160): 4.24; pKd (LNX2_2, Q8N448): 4.46
2 | 3.69 | below the threshold | below the threshold | below the threshold | below the threshold | below the threshold | below the threshold | 3.8 | below the threshold | below the threshold | below the threshold | below the threshold | below the threshold | 4.27 | below the threshold | below the threshold | below the threshold | below the threshold | below the threshold | 3.76 | RKPKPSSSCC [RAB9A, P51151] | pKd (GRIP1_7, Q9Y3R0): below the threshold; pKd (DVL3, Q92997): below the threshold; pKd (SCRIB_1, Q14160): below the threshold; pKd (LNX2_2, Q8N448): below the threshold

Continued, binder first:

Row | Binder | pKd (MAST2, Q6P0Q8) | pKd (TJP1_2, Q07157) | pKd (Inadl_3, Q8NI35) | pKd (DLG5_1, Q8TDM6) | pKd (MPDZ_12, O75970) | pKd (MPP7, Q5T2T1) | pKd (LIMK2, P53671) | pKd (TIAM2, Q8IVF5) | pKd (GOPC, Q9HD26) | pKd (APBA2_1, Q99767) | pKd (MPP2, Q14168) | pKd (NHERF3_3, Q5T2W1) | pKd (SNTG1, Q9NSN8) | pKd (ARHGEF12, Q9NZN5-2) | pKd (HTRA2, O43464) | pKd (GRIP2_3, Q9C0E4) | pKd (ARHGEF11, O15085) | pKd (APBA1_2, Q02410) | pKd (HTRA4, P83105) | pKd (PDZD7_3, Q9H5P4) | further results
3 | YRLAQESGLV [ABCC6, O95255] | 4.1 | below the threshold | below the threshold | below the threshold | below the threshold | below the threshold | below the threshold | below the threshold | below the threshold | below the threshold | below the threshold | below the threshold | below the threshold | below the threshold | below the threshold | below the threshold | below the threshold | below the threshold | 3.79 | 4.01 | pKd (GRIP1_7, Q9Y3R0): below the threshold; pKd (DVL3, Q92997): below the threshold; pKd (SCRIB_1, Q14160): below the threshold; pKd (LNX2_2, Q8N448): below the threshold
4 | SNAGNTATKA [NOSTRIN, Q8IVI9] | 3.59 | below the threshold | below the threshold | below the threshold | below the threshold | below the threshold | below the threshold | 4.11 | below the threshold | below the threshold | below the threshold | below the threshold | below the threshold | below the threshold | below the threshold | below the threshold | below the threshold | below the threshold | below the threshold | below the threshold | pKd (GRIP1_7, Q9Y3R0): below the threshold; pKd (DVL3, Q92997): below the threshold; pKd (SCRIB_1, Q14160): below the threshold; pKd (LNX2_2, Q8N448): 3.56
5 | SGSLKLMTTV [DACT1, Q9NYF0] | 5.36 | below the threshold | below the threshold | below the threshold | 3.77 | below the threshold | below the threshold | below the threshold | 3.95 | below the threshold | below the threshold | below the threshold | below the threshold | 4.62 | below the threshold | below the threshold | 4.71 | 3.5 | 4.26 | 5.22 | pKd (GRIP1_7, Q9Y3R0): below the threshold; pKd (DVL3, Q92997): below the threshold; pKd (SCRIB_1, Q14160): 3.98; pKd (LNX2_2, Q8N448): 4.63
6 | LKVPPEERLI [CRB2, Q5IJ48] | 4.3 | below the threshold | 3.6 | below the threshold | below the threshold | below the threshold | below the threshold | below the threshold | below the threshold | below the threshold | below the threshold | below the threshold | below the threshold | below the threshold | below the threshold | below the threshold | below the threshold | below the threshold | below the threshold | below the threshold | pKd (GRIP1_7, Q9Y3R0): below the threshold; pKd (DVL3, Q92997): below the threshold; pKd (SCRIB_1, Q14160): below the threshold; pKd (LNX2_2, Q8N448): 3.72
